# Measured values reported in PMC9076634, “Fibronectin binding protein B binds to loricrin and promotes corneocyte adhesion by Staphylococcus aureus” (Nature Communications, 2022).
# T1: recombinant GST-tagged human loricrin (GST-loricrin) (human, UniProt P23490 1-312)
# T1 construct: loricrin, human, full length; also called GST-tagged full length loricrin
# T1 sequence (looked up): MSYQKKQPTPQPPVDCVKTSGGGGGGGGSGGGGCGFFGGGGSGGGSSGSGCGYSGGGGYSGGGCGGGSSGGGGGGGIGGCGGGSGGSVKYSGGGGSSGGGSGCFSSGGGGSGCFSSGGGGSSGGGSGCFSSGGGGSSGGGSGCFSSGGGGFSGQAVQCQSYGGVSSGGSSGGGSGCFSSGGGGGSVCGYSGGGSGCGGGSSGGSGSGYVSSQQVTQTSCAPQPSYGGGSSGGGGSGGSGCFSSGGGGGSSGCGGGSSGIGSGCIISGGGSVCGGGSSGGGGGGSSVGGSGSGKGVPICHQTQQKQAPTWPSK
# B1: fibronectin binding protein B (FnBPB) on S. aureus SH1000 4X (pFnBPB) cells (natural protein)
# chain: ASEQNNTTVEESGSSATESKASETQTTTNNVNTIDETQSYSATSTEQPSQSTQVTTEEAPKTVQAPKVETSRVDLPSEKVADKETTGTQVDIAQPSNVSEIKPRMKRSTDVTAVAEKEVVEETKATGTDVTNKVEVEEGSEIVGHKQDTNVVNPHNAERVTLKYKWKFGEGIKAGDYFDFTLSDNVETHGISTLRKVPEIKSTDGQVMATGEIIGERKVRYTFKEYVQEKKDLTAELSLNLFIDPTTVTQKGNQNVEVKLGETTVSKIFNIQYLGGVRDNWGVTANGRIDTLNKVDGKFSHFAYMKPNNQSLSSVTVTGQVTKGNKPGVNNPTVKVYKHIGSDDLAESVYAKLDDVSKFEDVTDNMSLDFDTNGGYSLNFNNLDQSKNYVIKYEGYYDSNASNLEFQTHLFGYYNYYYTSNLTWKNGVAFYSNNAQGDGKDKLKEPIIEHSTPIELEFKSEPPVEKHELTGTIEESNDSKPIDFEYHTAVEGAEGHAEGTIETEEDSIHVDFEESTHENSKHHADVVEYEEDTNPGGGQVTTESNLVEFDEDSTKGIVTGAVSDHTTIEDTKEYTTESNLIELVDELPEEHGQAQGPIEEITENNHHISHSGLGTENGHGNYGVIEEIEENSHVDIKSELGYEGGQNSGNQSFEEDTEEDKPKYEQGGNIVDIDFDSVPQIHGQNNGNQSFEEDTEKDKPKYEQGGNIIDIDFDSVPHIHGFNKHTEIIEEDTNKDKPNYQFGGHNSVDFEEDTLPQVSGHNEGQQTIEEDTTPPIVPPTPPTPEVPSEPETPTPPTPEVPSEPETPTPPTPEVPTEPGKPIPPAKEEPKKPSKPVEQGKVVTPVIEINEKVKAVVPTKKAQSKKSELPET
# Target: T1, recombinant GST-tagged human loricrin …
# Test: dynamic force spectroscopy (AFM); as the single-molecule force spectroscopy, retraction speeds 1, 2.5, 5 and 10 µm s^-1; Bell-Evans fit of the high-force regime (loading rates 1.4 × 10^4 to 5 × 10^5 pN s^-1)
# Conditions: one partner purified
binder,measurement,value
B1,koff,5.8e-09 s⁻¹
